Laboratory results published in paper doi:10.1101/2024.07.01.601608 (bioRxiv, 2024).

B5: MED14 (endogenous) (natural protein)
chain: not shown

Assays:
[1] = target: recombinant human CDK8-Flag (baculovirus) (human, UniProt P49336 1-464); experiment: cryo-EM structure
[2] = target: recombinant human MED12-HA (baculovirus) (human, UniProt Q93074 1-2177); experiment: cryo-EM structure
MED12 (endogenous) = MED12 (endogenous) (human (endogenous in 293-F), UniProt Q93074 1-2177); experiment: cross-linking
MED14 (endogenous) = target: B5; experiment: cryo-EM structure
MED12L (endogenous) = MED12L (endogenous) (human (endogenous in 293-F), UniProt Q86YW9 1-2145); experiment: cross-linking
MED13 (endogenous) [3] = target: T1, MED13 (endogenous) (human (endogenous in 293-F), UniProt Q9UHV7 1-2174); experiment: cross-linking
MED13 (endogenous) [4] = target: T1, MED13 (endogenous); experiment: cryo-EM structure
MED13L (endogenous) = MED13L (endogenous) (human (endogenous in 293-F), UniProt Q71F56 1-2210); experiment: cross-linking
Sequence of MED13L (endogenous) (Q71F56 whole entry): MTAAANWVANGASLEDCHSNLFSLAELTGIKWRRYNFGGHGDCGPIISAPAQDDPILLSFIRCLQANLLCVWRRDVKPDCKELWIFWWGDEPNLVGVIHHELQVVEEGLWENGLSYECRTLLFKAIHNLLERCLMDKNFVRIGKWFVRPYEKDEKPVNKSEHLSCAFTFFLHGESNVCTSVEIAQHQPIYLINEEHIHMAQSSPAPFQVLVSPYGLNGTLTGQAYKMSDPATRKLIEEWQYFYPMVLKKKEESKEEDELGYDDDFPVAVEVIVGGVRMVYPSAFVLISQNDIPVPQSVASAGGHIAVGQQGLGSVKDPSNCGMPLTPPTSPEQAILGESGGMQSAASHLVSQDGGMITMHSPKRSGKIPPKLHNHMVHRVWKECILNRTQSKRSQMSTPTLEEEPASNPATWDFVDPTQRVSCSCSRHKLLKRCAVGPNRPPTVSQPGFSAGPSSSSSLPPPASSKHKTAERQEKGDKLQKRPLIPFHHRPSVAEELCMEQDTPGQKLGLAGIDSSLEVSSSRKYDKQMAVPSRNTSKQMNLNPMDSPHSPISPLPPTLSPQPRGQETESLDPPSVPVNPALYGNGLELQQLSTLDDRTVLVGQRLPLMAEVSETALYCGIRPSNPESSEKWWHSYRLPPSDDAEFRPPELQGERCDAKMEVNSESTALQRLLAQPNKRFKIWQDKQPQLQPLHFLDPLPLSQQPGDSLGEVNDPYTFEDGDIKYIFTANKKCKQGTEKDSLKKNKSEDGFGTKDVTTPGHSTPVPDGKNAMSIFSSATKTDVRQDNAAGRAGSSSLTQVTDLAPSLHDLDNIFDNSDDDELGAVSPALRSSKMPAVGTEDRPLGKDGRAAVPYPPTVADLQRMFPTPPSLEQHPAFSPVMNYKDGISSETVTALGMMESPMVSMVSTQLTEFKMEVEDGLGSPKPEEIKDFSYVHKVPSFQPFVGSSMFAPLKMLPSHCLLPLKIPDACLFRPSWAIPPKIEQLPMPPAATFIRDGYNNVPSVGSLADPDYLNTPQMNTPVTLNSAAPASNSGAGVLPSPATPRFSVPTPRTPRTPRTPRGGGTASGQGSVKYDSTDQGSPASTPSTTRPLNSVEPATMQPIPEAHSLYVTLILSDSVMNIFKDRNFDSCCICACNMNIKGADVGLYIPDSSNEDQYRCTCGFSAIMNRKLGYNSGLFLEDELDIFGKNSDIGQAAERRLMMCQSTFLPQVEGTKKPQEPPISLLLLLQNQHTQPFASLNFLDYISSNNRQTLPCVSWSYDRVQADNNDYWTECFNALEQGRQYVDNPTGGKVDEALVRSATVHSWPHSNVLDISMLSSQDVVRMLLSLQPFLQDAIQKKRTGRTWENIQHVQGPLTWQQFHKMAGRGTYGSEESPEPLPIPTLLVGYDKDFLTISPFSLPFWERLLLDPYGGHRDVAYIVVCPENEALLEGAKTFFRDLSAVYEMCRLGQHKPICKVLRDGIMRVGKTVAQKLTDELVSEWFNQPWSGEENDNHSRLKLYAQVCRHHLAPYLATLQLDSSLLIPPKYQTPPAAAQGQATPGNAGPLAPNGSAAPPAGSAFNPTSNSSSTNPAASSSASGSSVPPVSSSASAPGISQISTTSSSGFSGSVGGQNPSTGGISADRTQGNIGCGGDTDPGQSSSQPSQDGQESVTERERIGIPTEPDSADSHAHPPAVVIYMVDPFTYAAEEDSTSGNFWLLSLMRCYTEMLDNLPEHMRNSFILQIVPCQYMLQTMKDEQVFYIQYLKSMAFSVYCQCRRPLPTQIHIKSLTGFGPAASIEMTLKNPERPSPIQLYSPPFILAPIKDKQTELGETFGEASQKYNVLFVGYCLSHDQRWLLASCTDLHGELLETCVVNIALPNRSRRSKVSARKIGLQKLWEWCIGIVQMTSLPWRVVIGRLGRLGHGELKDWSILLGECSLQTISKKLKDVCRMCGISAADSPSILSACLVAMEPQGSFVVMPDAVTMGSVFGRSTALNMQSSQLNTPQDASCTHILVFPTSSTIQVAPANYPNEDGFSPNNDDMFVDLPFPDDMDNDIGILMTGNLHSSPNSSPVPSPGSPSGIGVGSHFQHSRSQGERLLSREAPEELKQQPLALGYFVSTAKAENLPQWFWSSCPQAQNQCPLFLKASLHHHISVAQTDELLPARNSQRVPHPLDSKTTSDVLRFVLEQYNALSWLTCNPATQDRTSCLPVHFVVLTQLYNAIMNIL

T1 sequence (Q9UHV7 whole entry): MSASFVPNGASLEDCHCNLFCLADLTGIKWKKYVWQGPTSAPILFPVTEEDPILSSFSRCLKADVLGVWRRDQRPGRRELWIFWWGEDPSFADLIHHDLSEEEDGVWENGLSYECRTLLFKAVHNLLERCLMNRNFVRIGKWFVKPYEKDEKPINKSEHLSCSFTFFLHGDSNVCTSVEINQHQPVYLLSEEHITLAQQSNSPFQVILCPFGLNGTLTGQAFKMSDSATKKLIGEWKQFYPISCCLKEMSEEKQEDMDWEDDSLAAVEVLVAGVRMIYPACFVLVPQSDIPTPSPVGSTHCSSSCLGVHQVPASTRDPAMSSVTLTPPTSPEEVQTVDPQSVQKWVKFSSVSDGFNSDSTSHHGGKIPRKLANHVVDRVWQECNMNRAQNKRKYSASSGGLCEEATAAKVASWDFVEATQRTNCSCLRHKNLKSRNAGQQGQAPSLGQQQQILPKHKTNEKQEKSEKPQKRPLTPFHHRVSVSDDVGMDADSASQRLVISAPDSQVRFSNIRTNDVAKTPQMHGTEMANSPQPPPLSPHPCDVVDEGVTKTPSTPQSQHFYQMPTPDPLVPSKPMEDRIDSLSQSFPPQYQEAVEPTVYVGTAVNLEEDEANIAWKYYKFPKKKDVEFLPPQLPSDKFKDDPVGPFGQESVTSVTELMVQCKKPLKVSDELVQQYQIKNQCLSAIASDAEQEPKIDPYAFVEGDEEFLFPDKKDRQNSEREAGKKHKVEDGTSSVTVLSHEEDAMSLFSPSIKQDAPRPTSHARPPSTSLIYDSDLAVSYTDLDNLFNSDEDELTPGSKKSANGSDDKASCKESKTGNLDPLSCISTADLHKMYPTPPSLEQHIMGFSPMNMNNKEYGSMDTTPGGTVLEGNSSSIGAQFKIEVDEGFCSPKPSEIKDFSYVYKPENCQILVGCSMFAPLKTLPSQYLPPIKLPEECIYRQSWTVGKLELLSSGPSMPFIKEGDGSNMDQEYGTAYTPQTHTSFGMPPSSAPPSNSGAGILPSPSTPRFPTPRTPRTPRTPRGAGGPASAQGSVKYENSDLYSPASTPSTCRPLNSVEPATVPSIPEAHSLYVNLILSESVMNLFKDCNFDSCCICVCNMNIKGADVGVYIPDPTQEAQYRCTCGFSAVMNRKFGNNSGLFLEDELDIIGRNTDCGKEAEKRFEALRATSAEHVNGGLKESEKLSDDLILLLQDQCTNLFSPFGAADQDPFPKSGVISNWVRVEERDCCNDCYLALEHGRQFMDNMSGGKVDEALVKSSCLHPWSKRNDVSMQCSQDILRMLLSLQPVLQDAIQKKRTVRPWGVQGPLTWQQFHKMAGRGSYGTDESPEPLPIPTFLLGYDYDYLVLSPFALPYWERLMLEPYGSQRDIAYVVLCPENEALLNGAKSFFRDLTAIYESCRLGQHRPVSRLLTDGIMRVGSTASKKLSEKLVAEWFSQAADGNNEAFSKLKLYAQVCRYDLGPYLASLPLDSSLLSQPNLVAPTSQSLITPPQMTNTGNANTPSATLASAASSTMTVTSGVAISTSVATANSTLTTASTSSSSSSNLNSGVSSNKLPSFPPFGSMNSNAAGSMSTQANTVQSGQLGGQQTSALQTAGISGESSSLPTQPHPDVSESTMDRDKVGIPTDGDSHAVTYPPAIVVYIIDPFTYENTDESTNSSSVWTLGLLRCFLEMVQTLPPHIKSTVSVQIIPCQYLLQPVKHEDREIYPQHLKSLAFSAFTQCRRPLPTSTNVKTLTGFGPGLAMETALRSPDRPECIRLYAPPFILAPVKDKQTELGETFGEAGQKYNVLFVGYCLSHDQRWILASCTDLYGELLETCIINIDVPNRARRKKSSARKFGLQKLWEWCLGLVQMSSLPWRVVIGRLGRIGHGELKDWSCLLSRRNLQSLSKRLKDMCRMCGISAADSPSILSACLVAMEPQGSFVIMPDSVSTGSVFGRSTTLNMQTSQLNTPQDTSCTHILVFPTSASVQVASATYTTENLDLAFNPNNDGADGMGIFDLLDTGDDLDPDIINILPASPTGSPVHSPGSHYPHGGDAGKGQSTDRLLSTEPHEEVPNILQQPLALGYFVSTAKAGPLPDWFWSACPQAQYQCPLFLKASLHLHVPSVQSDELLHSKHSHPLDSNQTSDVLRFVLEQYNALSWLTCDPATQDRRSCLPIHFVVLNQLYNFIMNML
Sequence of recombinant human CDK8-Flag (baculovirus) (P49336 whole entry): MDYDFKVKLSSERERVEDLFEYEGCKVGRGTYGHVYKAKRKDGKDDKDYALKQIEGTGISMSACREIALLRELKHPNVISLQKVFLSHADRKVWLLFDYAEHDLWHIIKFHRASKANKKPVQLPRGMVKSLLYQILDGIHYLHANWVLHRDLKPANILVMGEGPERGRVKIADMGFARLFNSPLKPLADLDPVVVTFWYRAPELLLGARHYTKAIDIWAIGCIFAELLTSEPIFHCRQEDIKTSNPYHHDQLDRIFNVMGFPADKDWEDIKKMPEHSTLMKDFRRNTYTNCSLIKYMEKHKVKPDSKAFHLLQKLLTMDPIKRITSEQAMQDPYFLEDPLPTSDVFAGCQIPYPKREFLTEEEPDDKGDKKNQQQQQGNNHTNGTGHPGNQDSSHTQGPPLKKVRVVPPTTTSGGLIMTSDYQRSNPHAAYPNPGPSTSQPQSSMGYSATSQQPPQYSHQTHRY

B1: recombinant human CCNC-6xHis (baculovirus) (natural protein)
chain: MAGNFWQSSHYLQWILDKQDLLKERQKDLKFLSEEEYWKLQIFFTNVIQALGEHLKLRQQVIATATVYFKRFYARYSLKSIDPVLMAPTCVFLASKVEEFGVVSNTRLIAAATSVLKTRFSYAFPKEFPYRMNHILECEFYLLELMDCCLIVYHPYRPLLQYVQDMGQEDMLLPLAWRIVNDTYRTDLCLLYPPFMIALACLHVACVVQQKDARQWFAELSVDMEKILEIIRVILKLYEQWKNFDERKEMATILSKMPKPKPPPNSEGEQGPNGSQNSSYSQS
[1]
  binding result: binds
[2]
  binding result: binds

B2: CCNC (endogenous) (natural protein)
chain: MAGNFWQSSHYLQWILDKQDLLKERQKDLKFLSEEEYWKLQIFFTNVIQALGEHLKLRQQVIATATVYFKRFYARYSLKSIDPVLMAPTCVFLASKVEEFGVVSNTRLIAAATSVLKTRFSYAFPKEFPYRMNHILECEFYLLELMDCCLIVYHPYRPLLQYVQDMGQEDMLLPLAWRIVNDTYRTDLCLLYPPFMIALACLHVACVVQQKDARQWFAELSVDMEKILEIIRVILKLYEQWKNFDERKEMATILSKMPKPKPPPNSEGEQGPNGSQNSSYSQS
MED12 (endogenous)
  binding result: binds

B3: MED10 (endogenous) (natural protein)
chain: MAEKFDHLEEHLEKFVENIRQLGIIVSDFQPSSQAGLNQKLNFIVTGLQDIDKCRQQLHDITVPLEVFEYIDQGRNPQLYTKECLERALAKNEQVKGKIDTMKKFKSLLIQELSKVFPEDMAKYRSIRGEDHPPS
MED14 (endogenous)
  binding result: binds
MED12L (endogenous)
  binding result: binds
MED13 (endogenous) [3]
  binding result: binds
MED12 (endogenous)
  binding result: binds

B4: MED19 (endogenous) (natural protein)
chain: MENFTALFGAQADPPPPPTALGFGPGKPPPPPPPPAGGGPGTAPPPTAATAPPGADKSGAGCGPFYLMRELPGSTELTGSTNLITHYNLEQAYNKFCGKKVKEKLSNFLPDLPGMIDLPGSHDNSSLRSLIEKPPILSSSFNPITGTMLAGFRLHTGPLPEQCRLMHIQPPKKKNKHKHKQSRTQDPVPPETPSDSDHKKKKKKKEEDPDRKRKKKEKKKKKNRHSPDHPGMGSSQASSSSSLR
MED13 (endogenous) [4]
  binding result: binds
MED14 (endogenous)
  binding result: binds
MED12 (endogenous)
  binding result: binds

## B5
MED13L (endogenous)
  binding result: binds

B6: MED6 (endogenous) (natural protein)
chain: MAAVDIRDNLLGISWVDSSWIPILNSGSVLDYFSERSNPFYDRTCNNEVVKMQRLTLEHLNQMVGIEYILLHAQEPILFIIRKQQRQSPAQVIPLADYYIIAGVIYQAPDLGSVINSRVLTAVHGIQSAFDEAMSYCRYHPSKGYWWHFKDHEEQDKVRPKAKRKEEPSSIFQRQRVDALLLDLRQKFPPKFVQLKPGEKPVPVDQTKKEAEPIPETVKPEEKETTKNVQQTVSAKGPPEKRMRLQ
MED13 (endogenous) [3]
  binding result: binds
MED13L (endogenous)
  binding result: binds

B7: MED17 (endogenous) (natural protein)
chain: MSGVRAVRISIESACEKQVHEVGLDGTETYLPPLSMSQNLARLAQRIDFSQGSGSEEEEAAGTEGDAQEWPGAGSSADQDDEEGVVKFQPSLWPWDSVRNNLRSALTEMCVLYDVLSIVRDKKFMTLDPVSQDALPPKQNPQTLQLISKKKSLAGAAQILLKGAERLTKSVTENQENKLQRDFNSELLRLRQHWKLRKVGDKILGDLSYRSAGSLFPHHGTFEVIKNTDLDLDKKIPEDYCPLDVQIPSDLEGSAYIKVSIQKQAPDIGDLGTVNLFKRPLPKSKPGSPHWQTKLEAAQNVLLCKEIFAQLSREAVQIKSQVPHIVVKNQIISQPFPSLQLSISLCHSSNDKKSQKFATEKQCPEDHLYVLEHNLHLLIREFHKQTLSSIMMPHPASAPFGHKRMRLSGPQAFDKNEINSLQSSEGLLEKIIKQAKHIFLRSRAAATIDSLASRIEDPQIQAHWSNINDVYESSVKVLITSQGYEQICKSIQLQLNIGVEQIRVVHRDGRVITLSYQEQELQDFLLSQMSQHQVHAVQQLAKVMGWQVLSFSNHVGLGPIESIGNASAITVASPSGDYAISVRNGPESGSKIMVQFPRNQCKDLPKSDVLQDNKWSHLRGPFKEVQWNKMEGRNFVYKMELLMSALSPCLL
MED13L (endogenous)
  binding result: binds

B8: MED18 (endogenous) (natural protein)
chain: MEAPPVTMMPVTGGTINMMEYLLQGSVLDHSLESLIHRLRGLCDNMEPETFLDHEMVFLLKGQQASPFVLRARRSMDRAGAPWHLRYLGQPEMGDKNRHALVRNCVDIATSENLTDFLMEMGFRMDHEFVAKGHLFRKGIMKIMVYKIFRILVPGNTDSTEALSLSYLVELSVVAPAGQDMVSDDMKNFAEQLKPLVHLEKIDPKRLM
MED13L (endogenous)
  binding result: binds

B9: MED22 (endogenous) (natural protein)
chain: MAQQRALPQSKETLLQSYNKRLKDDIKSIMDNFTEIIKTAKIEDETQVSRATQGEQDNYEMHVRAANIVRAGESLMKLVSDLKQFLILNDFPSVNEAIDQRNQQLRTLQEECDRKLITLRDEISIDLYELEEEYYSSSSSLCEANDLPLCEAYGRLDLDTDSADGLSAPLLASPEPSAGPLQVAAPAHSHAGGPGPTEHA
MED13L (endogenous)
  binding result: binds

B10: MED31 (endogenous) (natural protein)
chain: MAAAVAMETDDAGNRLRFQLELEFVQCLANPNYLNFLAQRGYFKDKAFVNYLKYLLYWKDPEYAKYLKYPQCLHMLELLQYEHFRKELVNAQCAKFIDEQQILHWQHYSRKRMRLQQALAEQQQQNNTSGK
MED13 (endogenous) [3]
  binding result: binds
